Earlier results, collected in article PMC12655228.

Target: HER2 (Homo sapiens) (UniProt P04626)

For Trastuzumab, the Kd is listed as 0.1 nM.
